Positions count from the first letter of the chain named. In names and notes the source's numbering stands.
B1: C5A (XPA23) VL Q27I (antibody, V domains shown)
VH: EVQLLESGGGLVQPGGSLRLSCAASGFTFSKYFMFWVRQAPGKGLEWVSVISPSGGMTRYADSVKGRFTISRDNSKNTLYLQMNSLRAEDTAVYYCARVGYGGNSDYWGQGTLVTVSS
VL: DIQMTQSPSSVSASVGDRLTIICRASIDINRWLAWYQQTPGNAPKLLIHSATSLQSGVPSRFSGSGSGTDFTLTINSLQPEDFATYYCQQADSFPLTFGGGTKVEIK
B2: C5A (XPA23) VL R31F (antibody, V domains shown)
VH: B1 VH
VL: B1 VL with I27Q, R31F
B3: C5A (XPA23) VL Q27F (antibody, V domains shown)
VH: B1 VH
VL: B1 VL with I27F
B4: C5A (XPA23) VL N30P (antibody, V domains shown)
VH: B1 VH
VL: B1 VL with I27Q, N30P
B5: C5A (XPA23) VL D28V (antibody, V domains shown)
VH: B1 VH
VL: B1 VL with I27Q, D28V
B6: C5A (XPA23) VL D28A (antibody, V domains shown)
VH: B1 VH
VL: B1 VL with I27Q, D28A
B7: C5A (XPA23) VL S50A (antibody, V domains shown)
VH: B1 VH
VL: B1 VL with I27Q, S50A
B8: C5A (XPA23) VL H49A (antibody, V domains shown)
VH: B1 VH
VL: B1 VL with I27Q, H49A
B9: C5A (XPA23) VL T52L (antibody, V domains shown)
VH: B1 VH
VL: B1 VL with I27Q, T52L
B10: C5A (XPA23) VL A51L (antibody, V domains shown)
VH: B1 VH
VL: B1 VL with I27Q, A51L
B11: C5A (XPA23) VL H49L (antibody, V domains shown)
VH: B1 VH
VL: B1 VL with I27Q, H49L
B12: C5A (XPA23) VL R31G (antibody, V domains shown)
VH: B1 VH
VL: B1 VL with I27Q, R31G
B13: C5A (XPA23) VL R31W (antibody, V domains shown)
VH: B1 VH
VL: B1 VL with I27Q, R31W
B14: C5A (XPA23) VL N30I (antibody, V domains shown)
VH: B1 VH
VL: B1 VL with I27Q, N30I
B15: C5A (XPA23) VL N30L (antibody, V domains shown)
VH: B1 VH
VL: B1 VL with I27Q, N30L
B16: C5A (XPA23) VL A51P (antibody, V domains shown)
VH: B1 VH
VL: B1 VL with I27Q, A51P
B17: C5A (XPA23) VL R31L (antibody, V domains shown)
VH: B1 VH
VL: B1 VL with I27Q, R31L
B18: C5A (XPA23) VL D28L (antibody, V domains shown)
VH: B1 VH
VL: B1 VL with I27Q, D28L
B19: C5A (XPA23) VL R31A (antibody, V domains shown)
VH: B1 VH
VL: B1 VL with I27Q, R31A
B20: C5A (XPA23) VL N30G (antibody, V domains shown)
VH: B1 VH
VL: B1 VL with I27Q, N30G
B21: C5A (XPA23) VL T52I (antibody, V domains shown)
VH: B1 VH
VL: B1 VL with I27Q, T52I
B22: C5A (XPA23) VL R31V (antibody, V domains shown)
VH: B1 VH
VL: B1 VL with I27Q, R31V
B23: C5A (XPA23) VL D28G (antibody, V domains shown)
VH: B1 VH
VL: B1 VL with I27Q, D28G
B24: C5A (XPA23) VL D28W (antibody, V domains shown)
VH: B1 VH
VL: B1 VL with I27Q, D28W
B25: C5A (XPA23) VL T52V (antibody, V domains shown)
VH: B1 VH
VL: B1 VL with I27Q, T52V
B26: C5A (XPA23) VL S50G (antibody, V domains shown)
VH: B1 VH
VL: B1 VL with I27Q, S50G
B27: C5A (XPA23) VL S50V (antibody, V domains shown)
VH: B1 VH
VL: B1 VL with I27Q, S50V
B28: C5A (XPA23) VL A51G (antibody, V domains shown)
VH: B1 VH
VL: B1 VL with I27Q, A51G
B29: C5A (XPA23) VL H49P (antibody, V domains shown)
VH: B1 VH
VL: B1 VL with I27Q, H49P
B30: C5A (XPA23) VL N30V (antibody, V domains shown)
VH: B1 VH
VL: B1 VL with I27Q, N30V
B31: C5A (XPA23) VL S50W (antibody, V domains shown)
VH: B1 VH
VL: B1 VL with I27Q, S50W
B32: C5A (XPA23) VL H49F (antibody, V domains shown)
VH: B1 VH
VL: B1 VL with I27Q, H49F
B33: C5A (XPA23) VL H49W (antibody, V domains shown)
VH: B1 VH
VL: B1 VL with I27Q, H49W
B34: C5A (XPA23) VL T52A (antibody, V domains shown)
VH: B1 VH
VL: B1 VL with I27Q, T52A
B35: C5A (XPA23) VL N30A (antibody, V domains shown)
VH: B1 VH
VL: B1 VL with I27Q, N30A
B36: C5A (XPA23) VL Q27L (antibody, V domains shown)
VH: B1 VH
VL: B1 VL with I27L
B37: C5A (XPA23) VL N30F (antibody, V domains shown)
VH: B1 VH
VL: B1 VL with I27Q, N30F
B38: C5A (XPA23) VL A51W (antibody, V domains shown)
VH: B1 VH
VL: B1 VL with I27Q, A51W
B39: C5A (XPA23) VL T52F (antibody, V domains shown)
VH: B1 VH
VL: B1 VL with I27Q, T52F
B40: C5A (XPA23) VL N30W (antibody, V domains shown)
VH: B1 VH
VL: B1 VL with I27Q, N30W
B41: C5A (XPA23) VL S50I (antibody, V domains shown)
VH: B1 VH
VL: B1 VL with I27Q, S50I
B42: C5A (XPA23) VL R31I (antibody, V domains shown)
VH: B1 VH
VL: B1 VL with I27Q, R31I
B43: C5A (XPA23) VL D28P (antibody, V domains shown)
VH: B1 VH
VL: B1 VL with I27Q, D28P
B44: C5A (XPA23) VL S50L (antibody, V domains shown)
VH: B1 VH
VL: B1 VL with I27Q, S50L
B45: C5A (XPA23) VL D28F (antibody, V domains shown)
VH: B1 VH
VL: B1 VL with I27Q, D28F
B46: C5A (XPA23) VL A51V (antibody, V domains shown)
VH: B1 VH
VL: B1 VL with I27Q, A51V

Biological target: binding partner of C5A (XPA23)
Experiment: Biacore K-off

| fold difference in affinity vs original [fold] | Binder |
| --- | --- |
| 0.82 | B1 |
| 0.92 | B2 |
| 2.96 | B3 |
| 0.69 | B4 |
| 0.85 | B5 |
| 0.88 | B6 |
| 0.13 | B7 |
| 0.23 | B8 |
| 0.78 | B9 |
| 0.16 | B10 |
| 0.07 | B11 |
| 0.92 | B12 |
| 0.43 | B13 |
| 0.65 | B14 |
| 0.68 | B15 |
| 0.13 | B16 |
| 0.51 | B17 |
| 9.64 | B18 |
| 8.48 | B19 |
| 0.71 | B20 |
| 0.8 | B21 |
| 0.44 | B22 |
| 1.21 | B23 |

| fold difference in affinity vs original [fold] | Binder |
| --- | --- |
| 3.81 | B24 |
| 0.82 | B25 |
| 0.14 | B26 |
| 0.21 | B27 |
| 3.84 | B28 |
| 0.86 | B29 |
| 0.89 | B30 |
| 0.02 | B31 |
| 0.5 | B32 |
| 0.21 | B33 |
| 0.66 | B34 |
| 0.61 | B35 |
| 0.83 | B36 |
| 1.59 | B37 |
| 0.24 | B38 |
| 1.05 | B39 |
| 1.06 | B40 |
| 0.25 | B41 |
| 0.68 | B42 |
| 1.17 | B43 |
| 0.49 | B44 |
| 1.43 | B45 |
| 0.31 | B46 |
